Publication PMC12748774 (Nature Communications, 2025)

B1: SMZAb2 Fab (Fab, V domains shown)
VH: EVQLVQSGAEVKKPGSSVKVSCKAPGGTFSSYAMSWVRQAPGQGPEWVGGIVPVYGTSRYAQKFQGRGTITADESTSTVYLELSSLRSEDTALYYCARVRYYGSGTYYGGDAFDFWGQGTMVTVSS
VL: QTVVTQEPSFSVSPGGTVTLTCGLTSDSVSIHLYPSWYQQTPGQAPRALIYNTNTRSSGVPDRFSGSILGNKAALTITGAQADDESVYFCVVYMGSGIWVFGGGTKLTVL
notes: also called Fabs; source: 293F cells, co-transfected, purified (cOmplete His-Tag Purification Resin)
B2: OZ-D4_GL (germline-reverted OZ-D4, IgG1) (antibody, V domains shown)
VH: QVQLQESGPGLVKPSETLSLTCTVSGGSISSYYWSWIRQPPGKGLEWIGYIYYSGSTNYNPSLKSRVTISVDTSKNQFSLKLSSVTAADTAVYYCARYSSGWSFSFDIWGQGTRVTVSS
VL: QSALTQPASVSGSPGQSITISCTGTSSDVGSYNLVSWYQQHPGKAPKLMIYEGSKRPSGVSNRFSGSKSGNTASLTISGLQAEDEADYYCCSYAGSSTLVFGGGTKLTVL

Experiments:
[1] = molecular target: T1, ZIKV CC_FLE sE (G5C/G102C), disulfide-linked dimer (Zika virus (Brazilian Zika SPH2015 …)); assay: cryo-EM structure; settings: both partners purified
T1 construct: source: Drosophila Schneider S2 cells, purified (His-tag column, SEC)

[2] = molecular target: ZIKV WT sE (recombinant soluble ectodomain of Zika virus envelope E protein, wild type) (Zika virus, Brazilian strain SPH2015 …, UniProt A0A0U3FSM8); assay: BLI; settings: both partners purified

Binder	stoichiometry N [1]	binding result [2]
B1	2	
B2		no binding (tested: 250 nM)
